Test results as given in patent US20070248613A1 (MERCK, published 2007).
Values joined by “and” are separate entries in the source; they are usually repeats but may differ in a detail not shown here. Equal values may be shown once.

Columns and labels:
[1] = target: T1, 5-Helix (HIV-1); test: phage ELISA on biotinylated peptide captured on streptavidin plates
T1 construct: also called HIV-1 gp41-derived 5-Helix; biotinylated 5-Helix

[2] = target: gp41 of the HIV-1 BaL envelope (HIV-1 strain BaL); test: cell-based or functional assay
[3] = target: T2, gp41 of the HIV-1 HXB2 envelope (HIV-1 strain HXB2, UniProt P04578 512-856); test: cell-based or functional assay
[4] = target: T1, 5-Helix; test: SPR (Biacore)
[5] = target: gp41 of the HIV-1 BaL envelope (HIV-1 strain BaL); test: cell-based or functional assay; remark: listed apart in the source
[6] = target: gp41 of the HIV-1 NL4-3 envelope (HIV-1 strain NL4-3); test: cell-based or functional assay
[7] = target: T2, gp41 of the HIV-1 HXB2 envelope; test: cell-based or functional assay; remark: listed apart in the source
[8] = target: gp41 of the HIV-1 89.6 envelope (HIV-1 strain 89.6); test: cell-based or functional assay
[9] = target: gp41 of the HIV-1 MN-1 envelope (HIV-1 strain MN-1, UniProt P05877 514-856); test: cell-based or functional assay

B1: 5H/I1-BMV-B11 scFv (scFv)
scFv: QVQLVQSGAEVKKPGSSVKVSCKASGGTFSSYAISWVRQAPGQGLEWMGGIIPLFDTSNYAQNFQGRITITADKSTSTAYMELSSLRFEDTAIYYCARDNPLLLAMDVWGKGTTVTVSSGGGGSGGGGSGGGGSDIQMTQSPSTLSASIGDRVTITCRASEGIYHWLAWYQQKPGKAPKLLIYKASSLASGAPSRFSGSGSGTDFTLTISSLQPDDFATYYCQQYSNYPLTFGGGTKLEIK
notes: also called scFv B11
binding result [1]: binds

B2: 5H/I1-BMV-D5 scFv (scFv)
scFv: QVQLVQSGAEVRKPGASVKVSCKASGDTFSSYAISWVRQAPGQGLEWMGGIIPIFGTANYAQKFQGRVTITADESTSTAYMELSSLRSEDTAIYYCARDNPTLLGSDYWGKGTLVTVSSGGGGSGGGGSGGGGSDIQMTQSPSTLSASIGDRVTITCRASEGIYHWLAWYQQKPGKAPKLLIYKASSLASGAPSRFSGSGSGTDFTLTISSLQPDDFATYYCQQYSNYPLTFGGGTKLEIK
notes: also called scFv D5
IC50, single cycle infectivity assay [2]: 600 nM and 15 ug/ml | IC50 (printed TC50), single cycle infectivity assay against HIV-HXB2 [3]: 0.238 µM | IC50, single cycle infectivity assay [3]: 320 nM and 8 ug/ml | binding result [1]: binds

B3: D5 IgG (antibody, V domains shown)
VH: QVQLVQSGAEVRKPGASVKVSCKASGDTFSSYAISWVRQAPGQGLEWMGGIIPIFGTANYAQKFQGRVTITADESTSTAYMELSSLRSEDTAIYYCARDNPTLLGSDYWGKGTLVTVSS
VL: DIQMTQSPSTLSASIGDRVTITCRASEGIYHWLAWYQQKPGKAPKLLIYKASSLASGAPSRFSGSGSGTDFTLTISSLQPDDFATYYCQQYSNYPLTFGGGTKLEIK
notes: also called D5 IgG4; D5 antibody
Kd [4]: 0.00026 µM | koff [4]: 0.0001 s⁻¹ | kon [4]: 390000 M⁻¹ s⁻¹ | IC50, single cycle infectivity assay against HIV-HXB2 [3]: 0.261 µM | D5 IgG IC50 (nM), single cycle infectivity assay [5]: 93 nM | D5 IgG IC50 (nM), single cycle infectivity assay [6]: 226 nM | D5 IgG IC50 (nM), single cycle infectivity assay [7]: 310 nM | D5 IgG IC50 (nM), single cycle infectivity assay [8]: 1750 nM | D5 IgG IC50 (nM), single cycle infectivity assay [9]: 393 nM
